According to PMC7015683:

biological target: insulin-like growth factor 2 receptor (IGF2R), native full-length, from bovine liver (bovine) (UniProt P08169); test: pull-down
Chain of UniProt P08169 (P08169 45-2499): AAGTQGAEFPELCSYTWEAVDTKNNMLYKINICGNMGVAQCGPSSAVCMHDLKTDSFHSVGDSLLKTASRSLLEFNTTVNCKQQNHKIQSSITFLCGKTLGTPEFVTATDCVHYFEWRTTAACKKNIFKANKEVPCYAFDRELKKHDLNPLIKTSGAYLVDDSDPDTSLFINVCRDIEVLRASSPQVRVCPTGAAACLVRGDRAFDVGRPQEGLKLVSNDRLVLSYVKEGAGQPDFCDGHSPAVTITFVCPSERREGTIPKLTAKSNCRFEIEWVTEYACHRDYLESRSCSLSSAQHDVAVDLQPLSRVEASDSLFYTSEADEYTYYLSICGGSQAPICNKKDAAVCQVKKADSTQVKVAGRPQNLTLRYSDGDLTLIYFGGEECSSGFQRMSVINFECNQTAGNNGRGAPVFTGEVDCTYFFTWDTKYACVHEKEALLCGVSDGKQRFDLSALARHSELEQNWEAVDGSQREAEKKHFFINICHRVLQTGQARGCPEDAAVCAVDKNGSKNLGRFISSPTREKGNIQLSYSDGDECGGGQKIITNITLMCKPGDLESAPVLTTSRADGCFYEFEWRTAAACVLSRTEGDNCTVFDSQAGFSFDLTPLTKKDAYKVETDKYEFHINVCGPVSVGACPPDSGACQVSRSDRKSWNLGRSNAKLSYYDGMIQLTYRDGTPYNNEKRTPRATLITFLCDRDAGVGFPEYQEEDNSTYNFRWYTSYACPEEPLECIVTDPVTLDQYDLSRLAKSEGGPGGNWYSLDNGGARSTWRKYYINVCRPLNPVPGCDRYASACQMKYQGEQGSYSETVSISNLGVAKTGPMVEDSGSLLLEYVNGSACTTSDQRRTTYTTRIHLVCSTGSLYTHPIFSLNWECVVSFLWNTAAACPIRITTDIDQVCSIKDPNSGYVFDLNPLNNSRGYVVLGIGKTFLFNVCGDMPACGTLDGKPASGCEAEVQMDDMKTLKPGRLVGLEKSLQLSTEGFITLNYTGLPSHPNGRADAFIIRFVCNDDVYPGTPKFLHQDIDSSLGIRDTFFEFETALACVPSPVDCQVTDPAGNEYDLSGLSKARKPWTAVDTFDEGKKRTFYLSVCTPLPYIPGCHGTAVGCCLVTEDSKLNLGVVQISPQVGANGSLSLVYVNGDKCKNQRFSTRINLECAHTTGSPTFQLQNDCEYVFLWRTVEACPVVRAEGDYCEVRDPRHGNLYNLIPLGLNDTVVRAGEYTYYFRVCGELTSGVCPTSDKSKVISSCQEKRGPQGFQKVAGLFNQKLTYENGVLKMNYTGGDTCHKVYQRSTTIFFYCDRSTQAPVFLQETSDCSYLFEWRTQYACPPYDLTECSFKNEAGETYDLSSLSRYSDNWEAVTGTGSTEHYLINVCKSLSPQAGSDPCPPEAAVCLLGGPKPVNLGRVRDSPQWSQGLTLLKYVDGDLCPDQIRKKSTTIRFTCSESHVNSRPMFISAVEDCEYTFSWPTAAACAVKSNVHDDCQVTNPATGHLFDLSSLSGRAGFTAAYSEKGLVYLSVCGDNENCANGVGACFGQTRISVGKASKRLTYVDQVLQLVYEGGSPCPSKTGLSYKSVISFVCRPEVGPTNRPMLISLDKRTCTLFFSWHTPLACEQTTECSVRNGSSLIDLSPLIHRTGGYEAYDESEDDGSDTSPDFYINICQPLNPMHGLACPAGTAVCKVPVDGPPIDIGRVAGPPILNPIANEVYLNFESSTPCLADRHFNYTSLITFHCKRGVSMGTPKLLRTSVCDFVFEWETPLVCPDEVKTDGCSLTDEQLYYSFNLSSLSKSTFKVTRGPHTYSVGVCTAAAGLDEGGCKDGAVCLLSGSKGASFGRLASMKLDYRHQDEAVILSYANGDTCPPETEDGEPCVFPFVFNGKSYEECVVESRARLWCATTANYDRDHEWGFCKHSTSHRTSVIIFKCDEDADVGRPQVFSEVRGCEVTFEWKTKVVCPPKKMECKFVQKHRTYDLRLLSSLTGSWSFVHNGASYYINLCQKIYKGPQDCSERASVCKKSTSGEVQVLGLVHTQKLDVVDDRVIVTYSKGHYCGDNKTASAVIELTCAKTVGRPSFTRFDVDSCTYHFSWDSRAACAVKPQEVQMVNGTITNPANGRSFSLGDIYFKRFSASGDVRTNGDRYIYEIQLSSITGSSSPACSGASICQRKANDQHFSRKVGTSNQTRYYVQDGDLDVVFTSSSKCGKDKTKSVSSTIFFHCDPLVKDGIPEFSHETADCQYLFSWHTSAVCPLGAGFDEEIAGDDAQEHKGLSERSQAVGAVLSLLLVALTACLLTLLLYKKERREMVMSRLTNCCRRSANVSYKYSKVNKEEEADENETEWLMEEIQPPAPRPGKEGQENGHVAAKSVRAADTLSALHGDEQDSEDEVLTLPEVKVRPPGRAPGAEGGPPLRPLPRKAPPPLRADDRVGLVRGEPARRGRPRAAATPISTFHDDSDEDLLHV

| percent reduction of binding against WT IGF2 [%] | Substance |
| --- | --- |
| 20 to 30 | Flag-IGF2 F28A V43D double mutant (ligand) |
| 20 to 30 | Flag-IGF2 F48D mutant (ligand) |
| > 60 | Flag-IGF2 L53D mutant (ligand) |
